Data from the supplement of paper PMC9170038.

Tested on: MS2 coat protein
Test: apparent KD of MS2 coat protein; designed switch direction (-1 OFF switch, 1 ON switch): -1; higher = weaker reporter binding
Outline: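 The apparent KD reported per design is the median over clusters of curve fits to normalised cluster fluorescence. The RNA switches were transcribed on Illumina chips by stalled E. coli RNA polymerase. SNAP-549-labelled MS2 coat protein was titrated from 0.7 or 1.5 nM, doubling up to 3 µM, in Tris-HCl pH 7.5 buffer containing KCl, MgCl2, BSA, DTT, tRNA and Tween-20, with no input, 200 uM small-molecule ligand, or an oligonucleotide input.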

[1] = Eterna round: R95, input ligand: microRNA oligo, concentration not stated
[2] = input ligand: microRNA oligo, concentration not stated
[3] = Eterna round: R95, input ligand: FMN 200 uM
[4] = Eterna round: R95, input ligand: none

| Sequence | apparent KD of MS2 coat protein (input ligand: FMN 200 uM) [nM] | apparent KD of MS2 coat protein (input ligand: none) [nM] | apparent KD of MS2 coat protein [1] [nM] | further results |
| --- | --- | --- | --- | --- |
| GAGUGCUGAGGAUAUACAUGAGGAUCACCCAUGUGCUUCAGCUAGGAGACUAGCAUUGGUAGAAGGUAGUACUC [Mod of lroppy 4 - Jieux - Exclusion 3] (Eterna round: R97, puzzle: Exclusion 3) | 19.9 | 13.2 | – | – |
| GAGUGCUGAGGAUAUACAUGAGGAUCACCCAUGUGCUUCAGCUAGGAGACUAGUAUCAGUAGAAGGCAGUACUC [Mod of lroppy 20 - Jieux - Exclusion 3] (Eterna round: R97, puzzle: Exclusion 3) | 57.3 | 14.7 | – | – |
| GAGUGCUUAGGAUAUACAUGAGGAUCACCCAUGUGCUUCAGCUAGGAGACUAGCAUUGGUAGAAGGGAGUACUC [Mod of lroppy 5 - Jieux - Exclusion 3] (Eterna round: R97, puzzle: Exclusion 3) | 24.2 | 14.9 | – | – |
| GAGUGUUGAGGAUAUACAUGAGGAUCACCCAUGUGCUUCAGCUAGGAGACUAGCAUUGGUAGAAGGCAAUACUC [Mod of lroppy 6 - Jieux - Exclusion 3] (Eterna round: R97, puzzle: Exclusion 3) | 90.7 | 14.8 | – | – |
| GAUACACAUGAGGAUCACCCAUGUGAGGAUAUGGAGGAGUUGCGAGUAAGCGAUGGAUCCAGAAGGCGCGUGAG [JR_Ex1_Sub082] (Eterna round: R97, puzzle: Exclusion 1) | 73.2 | 64.2 | – | – |
| GAUAGACAUGAGGAUCACCCAUGUGAGGAUAUGCGUACGUUGUCCGUAGGCGACGUGCGCAGAAGGCGCGAGGU [Mat - Mod of JL D93] (puzzle: Exclusion 1) | – | – | 42.5 | – |
| GAUAGAGAGCAGGAUAUCAUAGAAAUGUAUGAAUGAGAAGGGCUCACAUGAGGAUCACCCAUGUGGUCCUAGAU [JL Dibiri mod 19] (Eterna round: R96, puzzle: Exclusion 6) | – | – | – | apparent KD of MS2 coat protein [2]: 23.4 nM |
| GAUAGAGAGCAGGAUAUCAUAGAAAUGUAUGAAUGAGAAGGGCUCACAUGAGGAUCACCCAUGUGGUCCUAGAU [JL Dibiri mod 19] (puzzle: Exclusion 6) | – | – | 22.4 | apparent KD of MS2 coat protein [3]: 135 nM; apparent KD of MS2 coat protein [4]: 21.1 nM |
| GAUAGAGAGCAGGAUAUCUUGGGUAAGUGUUGUAGAGAAGGGCUCACAUGAGGAUCACCCAUGUGGUCCAAGAU [JL Dibiri mod 07] (puzzle: Exclusion 6) | – | – | 16.9 | apparent KD of MS2 coat protein [3]: 35.2 nM; apparent KD of MS2 coat protein [4]: 17.2 nM |
| GAUAGAGCAGGAUAUUCAAUAUAUCACAUGAGGAUCACCCAUGUCCAGCGAAAGCUGGAGGGAGAAGGGCUCUAUC [Mat - Exclusion 5 - Eli mod - D99] (puzzle: Exclusion 5) | – | – | 366 | apparent KD of MS2 coat protein [3]: 77.6 nM; apparent KD of MS2 coat protein [4]: 262 nM |
| GAUCAACAAUCGAGCGGAUACAUGAGGAUCACCCAUGUCCGUAGUCGGGUAAAUAACAAGCUUUUUUCGCCGUCCCU [Eternabot (Original) Solution 42] (Eterna round: R97, puzzle: Sensor, turn-off variant 1) | 15.4 | 14.9 | – | – |
| GAUCAACAUGAGGAUCACCCAUGUCAGGAUAUCUAUCAAGUGAGCCUAUCACAAUUUGGGAGAAGGGACCUAAU [Eternabot (L2) Solution 51] (Eterna round: R97, puzzle: Exclusion 1) | 35.1 | 35.8 | – | – |
| GAUCAUGCAGGAUAUACAGUAACCAUGAAAACAUGGUUGCUACAUGAGGAUCACCCAUGUAGAAGGGCAUGAUC [Omei Ex2 A2] (Eterna round: R97, puzzle: Exclusion 2) | 17.9 | 16.9 | – | – |
| GAUCAUGCAGGAUAUACAUGGAACAUUAAAUCAUGAAUUCUACAUGAGGAUCACCCAUGUAGAAGGGCAUGAUC [Omei Ex2 A17] (Eterna round: R97, puzzle: Exclusion 2) | 169 | 72.1 | – | – |
| GAUCAUGCAGGAUAUACAUUAACCAUGAAAACAUGGUUGUCACAUGAGGAUCACCCAUGUAGAAGGGCAUGAUC [Omei Ex2 A6] (Eterna round: R97, puzzle: Exclusion 2) | 37.2 | 23.5 | – | – |
| GAUCCACAUGAGGAUCACCCAUGUGAGGAUAUGAUACUAUGUACUUCGGUACAUAGUAUCAGAAGGCAUAUUGA [Ex1-3: 46] (puzzle: Exclusion 1) | – | – | 36.3 | – |
| GAUCCACAUGAGGAUCACCCAUGUGAGGAUAUGUCCAUAUUCGGCAAAUCGGAUAUGGACAGAAGGCACACCGG [JR_Exclusion1_Sub012] (puzzle: Exclusion 1) | – | – | 104 | – |
| GAUCCGUUAGGAUAUACAGGAUUCACGCCUGAGUGAAUGUAGUAGAAGGAACAUGAGGAUCACCCAUGUGGUAU [Eternabot (L1) Solution 85] (Eterna round: R97, puzzle: Exclusion 4) | 83.2 | 40.5 | – | – |

| Sequence | apparent KD of MS2 coat protein (input ligand: FMN 200 uM) [nM] | apparent KD of MS2 coat protein (input ligand: none) [nM] | apparent KD of MS2 coat protein [1] [nM] | further results |
| --- | --- | --- | --- | --- |
| GAUCCUUAAGUCAGGAUAUCAAGCAAACUCUAAAUUGAGAAGGGACAUGAGGAUCACCCAUGUCACCGAAAUAA [Zabema] (puzzle: Brourd's mod of Exclusion 4) | – | – | 13 | – |
| GAUCCUUCUGUUAGGAUAUGCUUCGGGCUUCCGCUGCAGAAGGAACAUGAGGAUCACCCAUGUCAAAUAAAAUC [JL-BMX4-4.38 ViennaUCT mod] (Eterna round: R97, puzzle: Brourd's mod of Exclusion 4) | 48.5 | 17.8 | – | – |
| GAUCCUUUGACGGACGUCUCGAAACAUGAGGAUCACCCAUGUGAGGAUAUCUCCGAGAGGUCGGCAGAGAAGGCACAUGAACAA [MOD3 Eternabot solution 19 score 84.66] (Eterna round: R96, puzzle: Exclusion NG 3) | 123 | 19.8 | – | apparent KD of MS2 coat protein [2]: 16.5 nM |
| GAUCUACAUGAGGAUCACCCAUGUGAGGAUAUUUAGACCAACGCUCUAGCUGUUGAUGGAAGAAGGCACCACCG [Eternabot (L2) Solution 56] (Eterna round: R97, puzzle: Exclusion 1) | 25.4 | 26.2 | – | – |
| GAUCUAGGUGUCAGGAUAUGUAGCUAGGUAAGCAGACAGAAGGGACAUGAGGAUCACCCAUGUCGCAAAUUAAU [Gezadi] (Eterna round: R97, puzzle: Brourd's mod of Exclusion 4) | 86 | 18.5 | – | – |
| GAUCUGACAGGAUAUACAUGAGGAUCACCCAUGUGCGUGCUAGCGAAAGCUAGCGCAGGUAGAAGGGUCAGAUC [Ex3 dot plot directed v4] (puzzle: Exclusion 3) | – | – | 11.3 | apparent KD of MS2 coat protein [3]: 14.4 nM; apparent KD of MS2 coat protein [4]: 12.9 nM |
| GAUCUGAUAGGAUAUACAUGAGGAUCACCCAUGUGCGAGCUAGCGAAAGCUAGCUCAGGUAGAAGGGUCAGAUC [Ex3 dot plot directed v2] (puzzle: Exclusion 3) | – | – | 11.7 | – |
| GAUCUGCAGCAGGAUAUGCUCUCGGAAACGAGCGCAGAAGGGCUGACAUGAGGAUCACCCAUGUAAUAAUGGCC [EX6 A.24] (Eterna round: R97, puzzle: Exclusion 6) | 89.7 | 44.2 | – | – |
| GAUGAGGUAGGAUAUACGAGAAGAUAGGGUAGAGAGAGAACACAUGAGGAUCACCCAUGUAGAAGGACCAGUAG [Mat - Exclusion 2 - Mod of my Tesla design - D74] (puzzle: Exclusion 2) | – | – | 21.1 | apparent KD of MS2 coat protein [3]: 48.9 nM; apparent KD of MS2 coat protein [4]: 21.4 nM |
| GAUGUACAUGAGGAUCACCCAUGUCAGGAUAUUAGGCGCCCUCAUAGCAGGGCCAUGAUGAGAAGGGACAGUAC [Eternabot (L2) Solution 33] (Eterna round: R97, puzzle: Exclusion 1) | 67.6 | 66.4 | – | – |
| GAUGUUCGAGUUAGGAUAUGAAUCCAUACCGGACAUCAGAAGGAACUUGAGGAUCACCCAAGUGGGAAAGAAAU [Orzavera] (Eterna round: R97, puzzle: Brourd's mod of Exclusion 4) | 26.3 | 23.5 | – | – |
| GAUUAACAUGAGGAUCACCCAUGUGAGGAUAUGGACUUGCCCACUUACCCAUUAGAGUCUAGAAGGCGCAUCUC [1986#2\9] (Eterna round: R97, puzzle: Exclusion 1) | 25.7 | 25.3 | – | – |
| GAUUAACAUGAGGAUCACCCAUGUGAGGAUAUGGACUUGCCCACUUACCCAUUAGAGUCUAGAAGGCGCAUCUG [1986#23] (Eterna round: R97, puzzle: Exclusion 1) | 48.4 | 49.8 | – | – |
| GAUUAACAUGAGGAUCACCCAUGUGAGGAUAUGGACUUGCCCACUUUCCCAUUAGAGUCUAGAAGGCGCAUCUG [1986#24] (Eterna round: R97, puzzle: Exclusion 1) | 37.2 | 37.9 | – | – |
| GAUUAACAUGAGGAUCACCCAUGUGAGGAUAUGGACUUGCUCACUUUCCGAUUCGAGUCUAGAAGGCGCAUCUU [1986#116] (Eterna round: R97, puzzle: Exclusion 1) | 30.6 | 27.1 | – | – |
| GAUUACUGCAAGCUUUGGGACAUGAGGAUCACCCAUGUUCGUCUUAUUGAUCUAGGUACGCUGACGUACCUAGAUCU [JL-sv1-2.28 Brourd mod] (puzzle: Sensor v3, turn-off variant 1) | – | – | 26 | apparent KD of MS2 coat protein [3]: 15.8 nM; apparent KD of MS2 coat protein [4]: 14.1 nM |
| GAUUAGUGAGGAUAUGGUAAAGAUAAGAUGAUGAAAGAACUCCAGAAGGCACAUGAGGAUCACCCAUGUAGUAU [Mat - Exclusion 4 - Mod of JL - D22] (puzzle: Exclusion 4) | – | – | 21.6 | – |
